For 19 sequences, protein production results are on record in a protein production outcome set (Wang et al. 2014).

The nature of the data set: label from the status in PepcDB records.

As for “MLEYKKILVPVEGSPKGELALKKAIFVAKRNHAHLDILTVIQSSRFLDVYGHMGSNMDYVEVSLRRAKEYVEDLKDQIKRKYDFEDVEVYVEAGDPKAIIATEMPEKLGTDLIMMGATGLNAFQRAMIGSVADYVTRVALMDVLLVRTELDNLPYSK”, the protein production entry is listed as “failed”.

With “MLFDTSPKDNRKDFFDREKEIEKLKGLRAPITLVLGLRRTGKSSIIKIGINELNLPYIYLDLRKFEERNYISYKDFLLELQKEINKLVKRLPSLLKALKNIQGIVIMGNEIKFNWNRKDRLSFANLLESFEQASKDNVIIVLDEAQELVKLRGVNLLPALAYAYDNLKRIKFIMSGSEMGLLYDYLRVEDPESPLFGRAFSTVELKPFSREEAIEFLRRGFQEADIDFKDYEVVYEKIGGIPGWLTYFGFIYLDNKNLDFAINQTLEYAKKLILKEFENFLHGREIARKRYLNIMRTLSKCGKWSDVKRALELEEGIEISDSEIYNYLTQLTKHSWIIKEGEKYCPSEPLISLAFS”, the protein production entry is recorded as “not failed”.

For “MLGGIEAGGTKFVCAVGREDGTIIDRIEFPTKMPDETIEKVIQYFSQFSLQAIGIGSFGPVDNDKTSQTYGTITATPKAGWRHYPFLQTVKNEMKIPVGFSTDVNAAALGEFLFGEAKGLDSCLYITIGTGIGAGAIVEGRLLQGLSHPEMGHIYIRRHPDDVYQGKCPYHGDCFEGLASGPAIEARWGKKAADLSDIAQVWELEGYYIAQALAQYILILAPKKIILGGGVMQQKQVFSYIYQYVPKIMNSYLDFSELSDDISDYIVPPRLGSNAGIIGTLVLAHQALQAEAASGEVRS”, the protein production result is on record as “not failed”.

As to “MLGLGVDRLQADINRLLASLFHQGVLDEQFLQLQQLQDETSPNFVYDVINIYFDESEKLLRNLRLLLMDREFSDYKKIGLHLNQLVGSSSSIGARRVRNVCVAFRSASELSNRPGCLRGLEVVEHEYHYLKNMMHELFQWLQLEQQRILAAGVRYPM”, the protein production entry is listed as “failed”.

For the sequence “MLGNKVVSSPLVAALVALAVRLLAHNFSHHIHLPYHFGITTSKTGSEIWKEAVFWKQQFGVVPAFLTTVGPWFMEYIPPASSDAYVIFLCLCDALTVYIVSRWPSAKPQLTYALFVLNPIMALLPMLESLAPLEHVLLAVILECCRKRRIHPWLIFAARLLAPLLGFHFIAIIVALWYPVGTPCPKIALVGVALCTACIGGCGMLYLRWWGEHVERTSLYSPPDNGVMWYVRLLIMAAFHRSMEVGQIELPAVLTLIFSTGVPCEKEAAAETMKDGGAIPGDRRLLVTLLAICFSKLFCEHVILADYMITVFFLYSLLEVKGRGGFKSMLDRVRGLNIFLPICTLLLGVPLQYAFYTGWVMWDMANPNWVFFPQVAFVTGGGLFLLAFVNSLVDAMKEECVAGITKEKQA”, the protein production entry is “failed”.

Consider “MLGSTDLVLLGKVVATHGIRGQLSVVPFSGEFSTILSMQTVYLSGPDNRKESFEVDRAAVHRNRVLLTLKGFANINEVLHLVGRELFARRDQFPPLDEGEFYWCDLIGLSVTTSEGLSLGRIEEIIATGSNDVYVVRDGEREYLIPALEDIVVGVDLDKGIMTVSPTEGLLDLLEHHHHHH”, for which the protein production entry is on record as “not failed”.

Consider “MLGTSFNNFGISLSHKRYFSGKVDEIIRCTMGKRIVKISSTKINTSILSSVSEQIGENITDWKNDEKKVYVSRVVNQCIDKFCAEHSRKIGDNLRKQIFKQVEKDYRISLDINAAQSSINHLVSGSSYFKKKMDELCEGMNRSVKNDTTSNVANLISDQFFEKNVQYIDLKKLRGNMSDYITNLESPFLEHHHHHH”, for which the protein production entry is “failed”.

For “MLIAILLLLLSIFNIFIGKKVKDKNLAHLLSGFDKEKDDLEYVSSVLGNTFKWIGNLGVIITAIYLILINSISVGLYLICYVGVIILFTVNLTFKTDRHRRSKLKASK”, the protein production result is on record as “failed”.

Turning to “MLIALLLISYQLIKHGYRAADIKNLYTILEGEELRRQKDLSAKLRWGIVDEILWTIIVANGAILFTAHYVLIGLKILDLIAIFVVMLSGVMLYAPLAFLFLYPVVRAFEKNFPPSNPQFLLSHGLICTVSSLIVYEKLEQLWWDPLLVGFFWIAAGFVSFFTNRRFEVLVFLLLIAPLALLSVKCPGAILPILLAKSECSLRIQATFLVKLAVLIFASLAAVALVLQVFGYKSLRELSEKRKAAIKQGKYNPLRDPIIWIAWIMLTSLGLLIASFMERGEISPNML”, the protein production entry was “failed”.

Regarding “MLIATFFFTSHFSRAKQPMWYNGLLDLSVWQVIAVTLAMTHVTIVGVTVYLHRYSAHRSLELNAGLKHFFRFWLWLTTAQNTREWTAIHRKHHAKCETVDDPHSPVVKGLSTVLRKGAELYREEAQNQDTLRIYGKNCPEDWIERNLYSRYKMLGIVLMAVIDLALFGAIGITVWAIQMMWIPFWAAGVVNGLGHAVGYRNFECRDAATNLVPWGIVIGGEELHNNHHTYPNSAKLSVKPWEFDMGWAWIKLFSFLRLAKVQRVAPIAHRVEGKGHIDMDTAMAILNNRFQIMAQYRKLVIAPLVTQELAKADESVRHQFRRAKRLLSRETSLLDDKHHLRIQTMLEHSHALKVIYEKRLALQQIWVKTSSNGHDMLSAMKEWIHEAEASGIQSLREFADQLKTYSLRPVHA”, the protein production entry is given as “failed”.

With “MLIAVPLDDTNFSENLKKAKEKGADIVELRVDQFSDTSLNYVKEKLEEVHSQGLKTILTIRSPEEGGREVKNREELFEELSPLSDYTDIELSSRGLLVKLYNITKEAGKKLIISYHNFELTPPNWIIREVLREGYRYGGIPKIAVKANSYEDVARLLCISRQVEGEKILISMGDYGKISRLAGYVFGSVITYCSLEKAFAPGQIPLEEMVELRKKFYRL”, the protein production entry is “not failed”.

On to “MLICNDKSNPKTLLEEIMALRPWRKGPFEISQIKIDSEWDSSIKWDLVKNATPLKDKVVADVGCNNGYYLFKMLEHGPKSLVGFDPGVLVKKQFEFLAPFFDKEKKIIYESLGVEDLHEKYPNAFDVIFCLGVLYHRKSPLEALKALYHALKIKGELVLDTLIIDSPLDIALCPKKTYAKMKNVYFIPSVSALKGWCERVGFENFEILSVLKTTPKEQRKTDFILGQSLEDFLDKTDPSKTLEGYDAPLRGYFKMLK”, for which the protein production result was “failed”.

Consider “MLIDSLHVSFDSFNFESILPMLVLVCGGIFTLLINAFTSRFSRNLNVFLCMLFLVLDFLVVLGLEEQENAFFGFLSLDTLSLISQSIVLISAFLLIFLALSKERFNEFQTAEFYSLYLFIVAGFQFMVSSNHLLLILIGLETASLPLCVLMALSDKRYGLEAGIKYFTMGAMASAFFAMGAMAFYLLTGSLNLEVITLYLHTEGITNPMLFAMGAIFLIGAIGFKVSLVPFHTWMPDVYEGNNPVFASYISIVPKIAGFVVATRLFGAFIDTRTAWVEDIFYVLILMTITIPNFIALWQEDVKRMLAYSSISHSGFALACVFIHTEDSQQAMFVYWFMFAFTYIGAFGLLWLLKSREKTWDERYDHPYSKFNGLIKTHPLVAILGAIFVFGLAGIPPFSVFWGKFLAVESALESNHILLAVVMLVNSAVAAFYYFRWLVAMFFNKPLQSYAQNDIYTQNATMPIYAVIIAMALACLFSVFMMRGLLEFVA”, for which the protein production entry was “failed”.

As for “MLIEILEFASILALVAVLTLTVMLQDIFFIDINKQYTETRIGTIIFSIRMLFGAWVIFVTETTIIAISKVTAIQLIILLLIWVCSKYVQKTRENWLITIVAFVIYGVGTYIYIQFAFKGY”, the protein production entry was “failed”.

“MLIGAIVAKDDTWLLWAIIIVWATVSLFLEQRYRWASTISGAIIALVGAMLLSNFKVIPMSAPVYDTVWDYIVPLSIPLLLFSSNILKIWKESRRLLVIFFVASIGTMIGTTVGFMILNQWIPYLNKIGAMMTGSYIGGGVNFAALSSKLETPSEMISSTVVADNSVMALYFMLLIALPSLPLIKKQFKSDYESKSTPESQQAYWEPKKIQLLDIAFSIASAVTLVAVSFKGADLIQQWMPQHNVVLTLIVSFLGDPYLLLTTLTLIVVAVWGDFFESLAGASEIGTFLIYIFFVVIGTPASFATIITTAPLLFIFVIIILVFNLGLSLIFGKIFGFKIEEILLASNATAGGPTTAAALAIGKGWTKVVGPILIIGTLGYVIGNYAGTLMYQLLTYLG”: the protein production result is listed as “failed”.

On to “MLIGEIMDLNLKNFLEDREEIIRDAKRKDEKSFKDFKKIVEEIKERENKDKIVCDFTEYNPLHKGHKYALEKGKEHGIFISVLPGPLERSGRGIPYFLNRYIRAEMAIRAGADIVVEGPPMGIMGSGQYMRCLIKMFYSLGAEIIPRGYIPEKTMEKVIDCINKGYHIQVKPYKIICIETGEILGEKLNIDNYVIASMSQMIYKLNREGLKFNPKFVFVKRLEGISGTKIREAIFSGKFEDIKNMLPKTTLSILKELYDNGKLNELILKRFEDRILETANEYDLYEYLPSNVAEILEKKRPFNNIEEIKNSLPYGFSRHFRERILSKLEARIPNETLSKYINNYPAKIKILAVKL”, for which the protein production entry is recorded as “not failed”.

As for “MLIINGKIIPIAHTICAFSAFFAALVTGYSLHFHKIVTNAHYTYPDEWFPSVSATIGDRYPERSIFQILIALTAFPRFLLLLGHYYLNQSKVCFLVGVLRTVSCGGWVYITSTDDHDIHDIFMITYIVLTLPWDIMITRYSSPLTSKNKGLTATIFFGTLFPMIYWYIQHSVQQRAGAYSIYAYFEWSLILLDIAFDAFAYADFKKIDIVLAFNEKPGNTSFFQIRDSSPINYGEEKSSELQKSGEKKVEKEKPVARSATGSYFRFDSFFYLLTNIFNGFLFWSNVTSLLCSIWHFPLWYMGISGYEAAILGYLGPIFLYLPFVSEAFTQYGVLLGGIIAIGAYIVQMPELRLISVAVGTSITVATFVQNLRYITNAETSFSFALTWLLGLVASVILKMGFYTNNPTWVILDERNGGYNKTALVLTVLFGMLSPYVNSINFEGKRNAQAKSASLIGKLFLAVGFGSLLFGIHQLLTDSSTTIYWAWEGYNESHGPLPWPWGALTCTVMLFASLSSVKFMGKPLVPCLLLLISTAVLSARSITQWPKYIFGGLLYAIAMLWLVPSYFSALGQVQNIWVYVLSFSVYIIFVLAHVWVVAYAFVPMGWVLREKIETVLAFSSTFIIIGALTCKNLNIQLVTMGKKFFIYVFFFAVALLSLTARFVYDIRPTGIPQPYHPDSQLITAGIWTIHFGLDNDMWASEDRMINLIKDMELDVVGLLETDTQRITMGNRDLTSKLAHDLNMYADFGPGPNKHTWGCVLLSKFPIVNSTHHLLPSPVGELAPAIHATLQTYNDTLVDVFVFHSGQEEDEEDRRLQSNYMAKLMGNTTRPAILLSYLVVDPGEGNYNTYVSETSGMHDIDPSDDDRWCEYILYRGLRRTGYARVARGTITDTELQVGKFQVLSEQALVEHSDSMYEYGHMSEPEYEDMKFPDKFLGEGERGHFYHVFDEPRYYL”, the protein production entry was “failed”.

For “MLIKLRKQKQDENISFFSHFFAVFTGIFFVMTVIIIQVMHFGIYSSVDNSLKIATENVNDYVNMTLSHNNPITEAENGDASFKVKSNGQMAANTDTILYDKKHNVINNVNAFSSLYHIRPKLKDIGDIVEQEAKNIYGQTEKYRTVTVKVNNDFYPQIKFATIVINTTQLEEANTRYVTIIISVMIVFWLISVIASVYLAKWSQKPILENYEKQKSFVENASHELRTPLAVLQNRLESLFRKPEATILDSSESIASSLEEVRNMRMLTANLLNLARRDDGIKPEITEIQPRFFDDTFKNYEMIARENGKKLHIINKVNRQIKTDKTLLKQLMTILFDNAVKYTDNDGEIWLDVKTTDRSLIFSVADNGQGISDEDKKKIFDRFYRVDKARTRQKGGFGLGLSLAKQITDSLKGSIIVKDKKPQGVMFEARLLANK”, the protein production result is reported as “failed”.

As to “MLILAIPGYIYYHQQQEQAANQQLGQILPVYEQGNFQQALDGTGDRAGLLAIADDYGGTDAGNLATFYAANALYQRDEYDRALTYYQRFEKEKDFIGASAYAAQAAIQETRGSFERAGGLYEQAASQYQNKLTAPRYLLNAGQAYEEAGQYEAAIGVYERIQEEYPDSEQASNAERYLARAKVHQGSTSSS”, the protein production result is given as “failed”.
